Reference: paper PMC2150699 (The Journal of Cell Biology, 2000)

Columns and labels:
[1] = biological target: HT-WG (hexahistidine-tagged WG fragment of N-WASP, amino acids 1-277) (bovine, UniProt Q95107 1-277); assay: pull-down
[2] = biological target: HT-WGP (hexahistidine-tagged WGP fragment of N-WASP, amino acids 1-396) (bovine, UniProt Q95107 1-396); assay: pull-down
HT-WGP (hexahistidine-tagged WGP fragment of N-WASP, amino acids 1-396), sequence (Q95107 1-396): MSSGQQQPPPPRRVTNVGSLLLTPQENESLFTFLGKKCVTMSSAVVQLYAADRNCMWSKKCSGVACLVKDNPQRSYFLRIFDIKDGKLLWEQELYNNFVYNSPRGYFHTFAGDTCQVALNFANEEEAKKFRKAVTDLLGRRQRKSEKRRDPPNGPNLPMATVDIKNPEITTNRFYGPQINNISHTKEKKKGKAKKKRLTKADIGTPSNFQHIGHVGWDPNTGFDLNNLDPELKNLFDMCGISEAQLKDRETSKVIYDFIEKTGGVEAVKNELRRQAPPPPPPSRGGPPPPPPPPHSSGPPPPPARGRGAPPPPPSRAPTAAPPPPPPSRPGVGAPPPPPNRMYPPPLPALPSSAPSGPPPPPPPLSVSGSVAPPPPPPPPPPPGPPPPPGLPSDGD

HT-WG (hexahistidine-tagged WG fragment of N-WASP, amino acids 1-277), sequence (Q95107 1-277): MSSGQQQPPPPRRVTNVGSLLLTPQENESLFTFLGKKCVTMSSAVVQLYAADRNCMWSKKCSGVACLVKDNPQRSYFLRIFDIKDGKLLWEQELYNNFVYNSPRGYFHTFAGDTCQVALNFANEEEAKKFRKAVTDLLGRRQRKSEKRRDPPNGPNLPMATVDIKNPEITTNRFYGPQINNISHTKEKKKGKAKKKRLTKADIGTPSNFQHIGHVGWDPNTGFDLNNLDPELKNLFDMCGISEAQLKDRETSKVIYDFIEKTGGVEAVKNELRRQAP

- binding result [1]: binds
- binding result [2]: binds
B1: GST-VCA (GST fusion of the COOH-terminal VCA segment of bovine N-WASP, amino acids 392-505) (domain or fragment, UniProt Q95107 392-505, looked up)
chain: PSDGDHQVPTPAGSKAALLDQIREGAQLKKVEQNSRPVSCSGRDALLDQIRQGIQLKSVTDAPESTPPAPAPTSGIVGALMEVMQKRSKAIHSSDEDEDEDDDEDFEDDDEWED
